Drawing on US20220162314A1, this text covers EC50 (read off the curve) for one molecule.

This test has as its target Recombinant human CD8ab protein (extracellular domains of CD8a and CD8b with leucine zippers and tags) (human) (UniProt P01732). Put plainly: ELISA: antigen coated on the plate, antibody titrated, anti-IgG (Fc)-HRP and TMB, A450.

Chain of Recombinant human CD8ab protein (extracellular domains of CD8a and CD8b with leucine zippers and tags) (human) (P01732 22-182, chain 1 of 2): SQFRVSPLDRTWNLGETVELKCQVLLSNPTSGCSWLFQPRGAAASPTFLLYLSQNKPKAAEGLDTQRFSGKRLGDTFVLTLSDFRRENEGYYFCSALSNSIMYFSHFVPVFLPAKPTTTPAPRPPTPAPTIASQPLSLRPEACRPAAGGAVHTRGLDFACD
Chain of Recombinant human CD8ab protein (extracellular domains of CD8a and CD8b with leucine zippers and tags) (human) (P10966 22-170, chain 2 of 2, further chain): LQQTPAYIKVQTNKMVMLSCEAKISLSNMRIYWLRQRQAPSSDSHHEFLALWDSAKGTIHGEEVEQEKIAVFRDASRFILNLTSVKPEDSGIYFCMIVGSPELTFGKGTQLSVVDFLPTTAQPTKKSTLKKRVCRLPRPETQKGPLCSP

B1: xhCD8a1 (clone OKT8, Invitrogen) (antibody, from another filing, V domains shown)
VH: EVQLQQSGAELVKPGASVKLSCTASGFNIKDTYIHFVRQRPEQGLEWIGRIDPANDNTLYASKFQGKATITADTSSNTAYMHLCSLTSGDTAVYYCGRGYGYYVFDHWGQGTTLTVSS
VL: DVQINQSPSFLAASPGETITINCRTSRSISQYLAWYQEKPGKTNKLLIYSGSTLQSGIPSRFSGSGSGTDFTLTISGLEPEDFAMYYCQQHNENPLTFGAGTKLELK
With B1, the EC50 (read off the curve) turned out to be 0.2 nM.
